± gives the standard deviation of the averaged measurements.
System: ATP
Test: switch fluorescence ratio, 500 uM ATP over buffer (Cy3 cluster intensity, sum of 5 cycles each) (fold (ratio)); higher = stronger signal-on switching upon ATP binding; sequences stand for … in TCGTCGGCAGCGTCAGATGTGTATAAGAGACAGTTTTTTTTTTTTTTTTTTTTTTTTT…TC
Conditions: aptamer strand: ATP DNA aptamer (quencher-CACCTGGGGGAGTATTGCGGAGGAAGG + anchor), 100 nM annealed; ATP concentration: 500 uM
In short: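 Clusters carrying Cy3-labelled switching strands on a modified Illumina MiSeq flow-cell were annealed to 100 nM quencher-labelled ATP aptamer and imaged in selection buffer. They were imaged again after 15 min with 500 uM ATP at 22 °C, over five buffer/ATP cycles with NaOH stripping and re-annealing in between. For each cluster, the fluorescence ratio is the summed Cy3 intensity of the target cycles divided by that of the buffer cycles, averaged per switch-domain sequence. Clusters outside 100-1000 RFU were left out.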
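Further: ATP exposure 15 min at 22 °C before imaging.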

TTTACTGTTT gave a switch fluorescence ratio of 1.01 ± 0.082.

Work on TTTACTTCTC yielded a switch fluorescence ratio of 1.02 ± 0.032.

Sequence TTTAGAAAGG has a switch fluorescence ratio of 1 ± 0.025.

TTTAGAAGTG showed a switch fluorescence ratio of 1.005 ± 0.0094.

Sequence TTTAGAATAT has a switch fluorescence ratio of 0.9885 ± 0.0018.

With TTTAGAATCC the switch fluorescence ratio was 1.03 ± 0.019.

With TTTAGACA the switch fluorescence ratio was 1.02 ± 0.053.

TTTAGACGAC gave a switch fluorescence ratio of 1.04 ± 0.051.

In the case of TTTAGACTAG, the switch fluorescence ratio is reported as 0.987 ± 0.017.

In the case of TTTAGAGATT, the switch fluorescence ratio is reported as 1.01 ± 0.068.

In the case of TTTAGAGTAT, the switch fluorescence ratio is reported as 0.992 ± 0.018.

For TTTAGAGTTT, the switch fluorescence ratio was 0.997 ± 0.032.

Sequence TTTAGATAAC has a switch fluorescence ratio of 1.02 ± 0.044.

For TTTAGATAGG, the switch fluorescence ratio was 0.98 ± 0.026.

In the case of TTTAGATTTA, the switch fluorescence ratio is reported as 1.04 ± 0.042.

TTTAGATTTT was tested, and the switch fluorescence ratio was 0.998 ± 0.026.

Sequence TTTAGCAAAC has a switch fluorescence ratio of 3.53 ± 0.95.

For TTTAGCATTT, the switch fluorescence ratio was 0.997 ± 0.014.

With TTTAGCCCTT the switch fluorescence ratio was 1.01 ± 0.037.

TTTAGCGGAT showed a switch fluorescence ratio of 1.02 ± 0.019.

In the case of TTTAGCTGGG, the switch fluorescence ratio is reported as 1.01 ± 0.019.

For TTTAGCTGGT, the switch fluorescence ratio was 0.986 ± 0.033.

With TTTAGCTTAA the switch fluorescence ratio was 0.986 ± 0.021.

Work on TTTAGGACAG yielded a switch fluorescence ratio of 1.01 ± 0.011.

In the case of TTTAGGCATG, the switch fluorescence ratio is reported as 0.9966 ± 0.0076.

Work on TTTAGGGACG yielded a switch fluorescence ratio of 0.955 ± 0.14.

TTTAGGGGG gave a switch fluorescence ratio of 1.04 ± 0.067.

In the case of TTTAGGGGTA, the switch fluorescence ratio is reported as 0.996 ± 0.018.

TTTAGGGGTC showed a switch fluorescence ratio of 0.981 ± 0.024.

TTTAGGGTGG showed a switch fluorescence ratio of 1.01 ± 0.012.

With TTTAGGTACG the switch fluorescence ratio was 1 ± 0.018.

For TTTAGGTAGG, the switch fluorescence ratio was 1 ± 0.02.

For TTTAGGTATG, the switch fluorescence ratio was 0.987 ± 0.03.

For TTTAGGTTCC, the switch fluorescence ratio was 1.015 ± 0.005.

For TTTAGTACTG, the switch fluorescence ratio was 1.05 ± 0.032.

With TTTAGTAGGG the switch fluorescence ratio was 1 ± 0.027.

TTTAGTCTGC was tested, and the switch fluorescence ratio was 0.993 ± 0.018.

Sequence TTTAGTGAG has a switch fluorescence ratio of 1.02 ± 0.011.

With TTTAGTGGGT the switch fluorescence ratio was 0.984 ± 0.026.

For TTTAGTGTGG, the switch fluorescence ratio was 1.02 ± 0.044.

For TTTAGTTAAG, the switch fluorescence ratio was 0.945 ± 0.038.

Work on TTTAGTTCGG yielded a switch fluorescence ratio of 0.998 ± 0.027.

TTTAGTTTGG showed a switch fluorescence ratio of 1 ± 0.031.

TTTATAACCT was tested, and the switch fluorescence ratio was 1.7 ± 0.61.

Work on TTTATAAGGG yielded a switch fluorescence ratio of 0.995 ± 0.013.

In the case of TTTATACGGG, the switch fluorescence ratio is reported as 1.02 ± 0.039.

TTTATACGT was tested, and the switch fluorescence ratio was 0.9783 ± 0.0067.

Work on TTTATAGGGT yielded a switch fluorescence ratio of 1 ± 0.032.

In the case of TTTATAGGT, the switch fluorescence ratio is reported as 0.9713 ± 0.0062.

TTTATAGTAT was tested, and the switch fluorescence ratio was 0.993 ± 0.03.

TTTATAGTTA gave a switch fluorescence ratio of 0.979 ± 0.039.

TTTATATACG showed a switch fluorescence ratio of 0.991 ± 0.017.

For TTTATATATA, the switch fluorescence ratio was 1.005 ± 0.0095.

With TTTATATATG the switch fluorescence ratio was 1 ± 0.024.

For TTTATATATT, the switch fluorescence ratio was 1.01 ± 0.028.

TTTATATC was tested, and the switch fluorescence ratio was 1.07 ± 0.11.

Work on TTTATATGAG yielded a switch fluorescence ratio of 0.999 ± 0.044.

TTTATATTCG showed a switch fluorescence ratio of 0.989 ± 0.033.

TTTATCAACG showed a switch fluorescence ratio of 1.046 ± 0.0027.

For TTTATCGATT, the switch fluorescence ratio was 0.991 ± 0.036.

Work on TTTATCTGTG yielded a switch fluorescence ratio of 0.954 ± 0.019.

Work on TTTATCTTGT yielded a switch fluorescence ratio of 0.9852 ± 0.0016.

TTTATCTTTG gave a switch fluorescence ratio of 1 ± 0.027.

In the case of TTTATGAGAT, the switch fluorescence ratio is reported as 1 ± 0.027.

TTTATGATTA gave a switch fluorescence ratio of 1.035 ± 0.005.

For TTTATGGCGT, the switch fluorescence ratio was 1.008 ± 0.0097.

For TTTATGGCTT, the switch fluorescence ratio was 1.01 ± 0.046.

For TTTATGGGAC, the switch fluorescence ratio was 0.999 ± 0.052.

With TTTATGGGCA the switch fluorescence ratio was 1.04 ± 0.05.

Work on TTTATGGGTT yielded a switch fluorescence ratio of 0.985 ± 0.018.

With TTTATGTAAG the switch fluorescence ratio was 0.988 ± 0.065.

For TTTATGTACG, the switch fluorescence ratio was 0.985 ± 0.054.

Sequence TTTATGTTTG has a switch fluorescence ratio of 1.01 ± 0.035.

In the case of TTTATTAACT, the switch fluorescence ratio is reported as 1.06 ± 0.072.

TTTATTAAGG was tested, and the switch fluorescence ratio was 1 ± 0.023.

TTTATTAATC was tested, and the switch fluorescence ratio was 0.99544 ± 0.00085.

TTTATTACAT gave a switch fluorescence ratio of 0.996 ± 0.014.

TTTATTAGGC was tested, and the switch fluorescence ratio was 0.996 ± 0.022.

With TTTATTCGTT the switch fluorescence ratio was 0.9784 ± 0.0063.

For TTTATTCTG, the switch fluorescence ratio was 0.9873 ± 0.0064.

For TTTATTTAGG, the switch fluorescence ratio was 1.04 ± 0.011.

With TTTATTTCCT the switch fluorescence ratio was 1.07 ± 0.04.

With TTTATTTTAA the switch fluorescence ratio was 0.995 ± 0.028.

Work on TTTATTTTGC yielded a switch fluorescence ratio of 1.01 ± 0.036.

In the case of TTTATTTTTA, the switch fluorescence ratio is reported as 0.986 ± 0.019.

TTTCAAAAGG gave a switch fluorescence ratio of 1.01 ± 0.019.

TTTCAAAAT gave a switch fluorescence ratio of 1.035 ± 0.0037.

Work on TTTCAAGTTT yielded a switch fluorescence ratio of 1.16 ± 0.3.

Sequence TTTCAATGTA has a switch fluorescence ratio of 1.01 ± 0.039.

TTTCAATTAA showed a switch fluorescence ratio of 1 ± 0.013.

In the case of TTTCAATTGT, the switch fluorescence ratio is reported as 1.02 ± 0.047.

With TTTCACAGCG the switch fluorescence ratio was 1.01 ± 0.011.

With TTTCAGCGGG the switch fluorescence ratio was 1 ± 0.018.

In the case of TTTCAGGGCT, the switch fluorescence ratio is reported as 1.22 ± 0.16.

TTTCAGTATT showed a switch fluorescence ratio of 1.01 ± 0.029.

TTTCAGTTGG gave a switch fluorescence ratio of 1.02 ± 0.015.

Sequence TTTCATACGA has a switch fluorescence ratio of 1.01 ± 0.045.

For TTTCATACGG, the switch fluorescence ratio was 1.008 ± 0.0034.

For TTTCATCCAA, the switch fluorescence ratio was 1.42 ± 0.48.

TTTCATGTCG showed a switch fluorescence ratio of 0.986 ± 0.1.

Work on TTTCATGTTT yielded a switch fluorescence ratio of 0.9683 ± 0.007.

Sequence TTTCATTGGG has a switch fluorescence ratio of 1.01 ± 0.032.

TTTCATTTGG was tested, and the switch fluorescence ratio was 1.01 ± 0.03.

In the case of TTTCCAAATG, the switch fluorescence ratio is reported as 0.9847 ± 0.0059.

TTTCCAAGAA was tested, and the switch fluorescence ratio was 1.03 ± 0.025.

For TTTCCATTGG, the switch fluorescence ratio was 1.03 ± 0.015.

TTTCCATTGT showed a switch fluorescence ratio of 0.995 ± 0.048.

For TTTCCCAGGT, the switch fluorescence ratio was 3.64 ± 2.7.

With TTTCCCCATT the switch fluorescence ratio was 1.012 ± 0.0066.

Sequence TTTCCCGTTG has a switch fluorescence ratio of 1.07 ± 0.12.

Work on TTTCCGAGGG yielded a switch fluorescence ratio of 1.43 ± 0.63.

TTTCCGATGA was tested, and the switch fluorescence ratio was 1.08 ± 0.032.

TTTCCGGGGT gave a switch fluorescence ratio of 1.28 ± 0.31.

Sequence TTTCCGTTTT has a switch fluorescence ratio of 1.01 ± 0.038.

TTTCCTAACT showed a switch fluorescence ratio of 1.04 ± 0.039.

Work on TTTCCTATAT yielded a switch fluorescence ratio of 1.08 ± 0.078.

For TTTCCTATTG, the switch fluorescence ratio was 1.01 ± 0.027.

With TTTCCTGGGT the switch fluorescence ratio was 1.14 ± 0.18.

Work on TTTCCTGGTA yielded a switch fluorescence ratio of 0.9817 ± 0.0073.

TTTCCTTGCC showed a switch fluorescence ratio of 1.19 ± 0.024.

TTTCCTTGTT showed a switch fluorescence ratio of 1.09 ± 0.057.

With TTTCGACTGG the switch fluorescence ratio was 0.996 ± 0.02.

TTTCGAGGGG gave a switch fluorescence ratio of 1.02 ± 0.054.

TTTCGAGGGT was tested, and the switch fluorescence ratio was 1.006 ± 0.0034.

TTTCGATCTC gave a switch fluorescence ratio of 1.028 ± 0.0026.

TTTCGCAACG gave a switch fluorescence ratio of 1.09 ± 0.047.

With TTTCGCAGGT the switch fluorescence ratio was 1.24 ± 0.15.

TTTCGCTTTT gave a switch fluorescence ratio of 1.03 ± 0.044.

In the case of TTTCGGAAAC, the switch fluorescence ratio is reported as 1.1 ± 0.017.

Sequence TTTCGGAAAT has a switch fluorescence ratio of 1.01 ± 0.016.

TTTCGGAGGA was tested, and the switch fluorescence ratio was 0.991 ± 0.018.

TTTCGGCGCG gave a switch fluorescence ratio of 1.02 ± 0.038.

TTTCGGGATG showed a switch fluorescence ratio of 1.01 ± 0.066.

In the case of TTTCGGGGGA, the switch fluorescence ratio is reported as 1.01 ± 0.032.

TTTCGGGTAA was tested, and the switch fluorescence ratio was 1.34 ± 0.47.

TTTCGGTCCC showed a switch fluorescence ratio of 1.02 ± 0.021.

Sequence TTTCGGTCGC has a switch fluorescence ratio of 1.003 ± 0.008.

For TTTCGGTGGC, the switch fluorescence ratio was 0.99 ± 0.072.

Sequence TTTCGGTTTT has a switch fluorescence ratio of 1.04 ± 0.11.

With TTTCGTAGGA the switch fluorescence ratio was 1.28 ± 0.35.

Sequence TTTCGTGGGG has a switch fluorescence ratio of 0.992 ± 0.056.

With TTTCGTTCTT the switch fluorescence ratio was 1.02 ± 0.03.

Work on TTTCTAAATC yielded a switch fluorescence ratio of 0.979 ± 0.01.

TTTCTAAGTT gave a switch fluorescence ratio of 1.03 ± 0.021.

TTTCTAATGC was tested, and the switch fluorescence ratio was 1.03 ± 0.014.

TTTCTAGGCA showed a switch fluorescence ratio of 1.01 ± 0.03.

TTTCTATTTG was tested, and the switch fluorescence ratio was 1.02 ± 0.029.

Work on TTTCTCATTC yielded a switch fluorescence ratio of 1.08 ± 0.12.

TTTCTCCTTT gave a switch fluorescence ratio of 1.04 ± 0.035.

In the case of TTTCTCGATG, the switch fluorescence ratio is reported as 1.011 ± 0.0072.

In the case of TTTCTCGGAG, the switch fluorescence ratio is reported as 1.08 ± 0.084.

TTTCTGGAGA showed a switch fluorescence ratio of 1.05 ± 0.05.

TTTCTGGCGG showed a switch fluorescence ratio of 1.02 ± 0.025.

TTTCTGGGGG showed a switch fluorescence ratio of 0.984 ± 0.019.

TTTCTGTGGG gave a switch fluorescence ratio of 0.986 ± 0.016.

TTTCTGTGTT was tested, and the switch fluorescence ratio was 1.012 ± 0.0069.

For TTTCTTAATT, the switch fluorescence ratio was 1.4 ± 0.59.
